Experimental data reported in the supplement of paper PMC9170038.

Tests used:
[1] = test system: K4 kissing-loop RNA reporter; assay: apparent KD of K4 kissing-loop reporter; higher = weaker reporter binding; settings: Eterna round: R107;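 note: bound reporter read as fluorescence of individual clusters on recovered sequencing chips by microscopy, with normalized cluster intensities fitted with a binding model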
Protocol: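 RNA-MaP round R107: designed RNA switches with theophylline, tryptophan, arginine or FMN aptamers are transcribed on-chip within common flanks. They are titrated with a labelled K4 kissing-loop RNA reporter in RNA-MaP buffer (100 mM Tris pH 7.5, 80 mM KCl, 4 mM MgCl2), without ligand or with the indicated ligand. Median apparent KD per design.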

[2] = test system: MS2 coat protein; assay: apparent KD of MS2 coat protein; designed switch direction (-1 OFF switch, 1 ON switch): -1; higher = weaker reporter binding
Summary of the method: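 The reported apparent KD is a per-design median over clusters, from curve fits of normalised cluster fluorescence. Protein titrations used SNAP-549-labelled MS2 coat protein, doubled from 0.7 or 1.5 nM to 3 µM, in Tris-HCl pH 7.5 buffer with KCl, MgCl2, BSA, DTT, tRNA and Tween-20, with no input, 200 uM small-molecule ligand, or an oligonucleotide input. The RNA switches were transcribed on Illumina chips by stalled E. coli RNA polymerase.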

[3] = input ligand: theophylline 20 uM
[4] = input ligand: tryptophan 2.4 mM
[5] = input ligand: microRNA oligo, concentration not stated
[6] = Eterna round: R95, input ligand: microRNA oligo, concentration not stated

Row | Sequence | apparent KD of K4 kissing-loop reporter ([1]; input ligand: FMN 200 uM) [nM] | apparent KD of K4 kissing-loop reporter ([1]; input ligand: arginine 13.2 mM) [nM] | apparent KD of K4 kissing-loop reporter ([1]; input ligand: none) [nM] | apparent KD of K4 kissing-loop reporter [1, 3] [nM] | apparent KD of K4 kissing-loop reporter [1, 4] [nM] | apparent KD of MS2 coat protein ([2]; input ligand: FMN 200 uM) [nM] | apparent KD of MS2 coat protein [2, 5] [nM] | apparent KD of MS2 coat protein ([2]; input ligand: none) [nM] | apparent KD of MS2 coat protein [2, 6] [nM]
1 | AAAAUAAACCAGUGAUGUUGGUGUCUAGAUACCAGCGACGAAAGUCGCCCUUGGCAGCUAUGGACGUACAAAAUAAGUACGUCCU [MatMod 6 - Jieux - Same State - Theophylline A] | 647 | 459 | 617 | 679 | 612 |  |  |  | 
2 | AAACAUUGGUCUGAUACCAGCUGAUCGGAAACGAUCAUGCUGGAGUGAUGUUCCAGGAAAAGCCCUUGGCAGCAGACCGAUGAAA [MAT - Same State Theophlline B - Mod of Eli - D28] | 94.7 | 103 | 75.6 | 184 | 137 |  |  |  | 
3 | AAACGCUUGAAUAACAAGCGAAUAAAUUCGCGAGGACCGGUACGGCCGCCACUCGCUAACUGCGAGUGAUGUUCGAUAAUAAAAU [Mat - Mod of OpenEnded 3 - D14] | 115 | 91.8 | 170 | 176 | 95 |  |  |  | 
4 | AAACGUUGGUCUGAUACCAGCUGAUCGGAAACGAUCUUGCUGGAGUGAUGUUCCAGGAAAAGCCCUUGGCAGCAGACCGACGAAA [MAT - Same State Theophlline B - Mod of Eli - D25] | 901 | 714 | 1510 | 1260 | 894 |  |  |  | 
5 | AAAGGAGUGGAAGGAUAUCCUGGUGUGGGUGGUGUUAGUGAUGUUGGUGGUGCAGUGAUGUUGCGCGGAGAAGGUCCGGUAUUGG [BDazzled - #2 - Exc. FMN B] | 485 | 462 | 437 | 517 | 410 |  |  |  | 
6 | AAAUAAAACUAUGAUACCAGUCAUCACAGAGUGAUGUUUUGUGGCAUUUUAAACUUGGCAGACCCUUGGCAGCAUGAUAUAGGAG [theeternabot_sameState_KL_Theo_B_8] | 486 | 207 | 318 | 358 | 261 |  |  |  | 
7 | UUUGAAAAUGUAGGAUAUGGAAUAGGUAAGUAGCCAGAAGGACAUGAGGAUCACCCAUGUAAGAACAUAGGGAAAGAUAUGUUU [No clue what I'm doing] (Eterna round: R96, puzzle: Exclusion NG 1) |  |  |  |  |  | 90.8 | 32.9 | 44.7 | 
8 | UUUGAUUAUGUGAGGAUAUACUGUUUGUAUUGAUUGUAGAAGGUACAUGAGGAUCACCCAUGUUUUGUAUUUAU [JR_BME4_Sub036] (puzzle: Brourd's mod of Exclusion 4) |  |  |  |  |  |  |  |  | 17.1
9 | UUUGUAUAUGAAGGAUAUACUUAACAUGAGGAUCACCCAUGUGGUGUUGUGAGUGAGUGAGUUUAGUAGAAGGUCAAUUCUUUU [JMF's solution 92] (Eterna round: R96, puzzle: Exclusion NG 2) |  |  |  |  |  | 651 | 417 | 434 | 
10 | UUUGUCUGUGUGAGGAUAUACUUUGUUUGGUCGUUGUAGAAGGCACAUGAGGAUCACCCAUGUAGUUUGUUGUG [JR_BME4_Sub014] (puzzle: Brourd's mod of Exclusion 4) |  |  |  |  |  |  |  |  | 20.3
11 | UUUGUUUAUGUGAGGAUAUACUGUUUGUAUUGAUUGUAGAAGGUACAUGAGGAUCACCCAUGUUUUGUAUUUAU [JR_BME4_Sub035] (puzzle: Brourd's mod of Exclusion 4) |  |  |  |  |  |  |  |  | 17.7
12 | UUUUAACAAGCGAGAUCCUACAUGAGGAUCACCCAUGUAUGUCAUGGUUUCCAUGGUCUUUUUGCUCGUCUUGUGUG [jl TITIN mod 7] (Eterna round: R97, puzzle: Sensor, turn-off variant 1) |  |  |  |  |  | 40.9 |  | 44.1 | 
13 | UUUUAACAUGAGGAUCACCCAUGUGAGGAUAUCGAAAUUUAUAUUAAUAUUAAUAAUUCGAGAAGGCACAUUUU [JMF 21] (puzzle: Exclusion 1) |  |  |  |  |  |  |  |  | 117
